Measurements as given in patent US20160145308A1 (SANFORD BURNHAM MEDICAL RESEARCH INSTITUTE, published 2016).
Blank lines part the entries; values can stand above or below the binder they belong to. Where no end group is shown, it is not given here. The star is where a group is joined. FITC = O=C1OC2(c3ccc(O)cc3Oc3cc(O)ccc32)c2ccc(NC(=S)*)cc21

Key:
[1] = target: T1, CNGB3-MYC/His fusion protein (human, UniProt Q9NQW8 1-809); experiment: fluorescence microscopy of CNGB3-MYC expressing HEK293T cells, 37° C. for 30 min, Alexa 488-conjugated avidin
T1 construct: Full-length CNGB3 cDNA in pcDNA3.1/myc-His-B, expressed in HeLa and HEK293T cells; also called recombinant CNGB3; not shown: C-terminal myc-His tag from the pcDNA3.1/myc-His-B vector
T1 sequence: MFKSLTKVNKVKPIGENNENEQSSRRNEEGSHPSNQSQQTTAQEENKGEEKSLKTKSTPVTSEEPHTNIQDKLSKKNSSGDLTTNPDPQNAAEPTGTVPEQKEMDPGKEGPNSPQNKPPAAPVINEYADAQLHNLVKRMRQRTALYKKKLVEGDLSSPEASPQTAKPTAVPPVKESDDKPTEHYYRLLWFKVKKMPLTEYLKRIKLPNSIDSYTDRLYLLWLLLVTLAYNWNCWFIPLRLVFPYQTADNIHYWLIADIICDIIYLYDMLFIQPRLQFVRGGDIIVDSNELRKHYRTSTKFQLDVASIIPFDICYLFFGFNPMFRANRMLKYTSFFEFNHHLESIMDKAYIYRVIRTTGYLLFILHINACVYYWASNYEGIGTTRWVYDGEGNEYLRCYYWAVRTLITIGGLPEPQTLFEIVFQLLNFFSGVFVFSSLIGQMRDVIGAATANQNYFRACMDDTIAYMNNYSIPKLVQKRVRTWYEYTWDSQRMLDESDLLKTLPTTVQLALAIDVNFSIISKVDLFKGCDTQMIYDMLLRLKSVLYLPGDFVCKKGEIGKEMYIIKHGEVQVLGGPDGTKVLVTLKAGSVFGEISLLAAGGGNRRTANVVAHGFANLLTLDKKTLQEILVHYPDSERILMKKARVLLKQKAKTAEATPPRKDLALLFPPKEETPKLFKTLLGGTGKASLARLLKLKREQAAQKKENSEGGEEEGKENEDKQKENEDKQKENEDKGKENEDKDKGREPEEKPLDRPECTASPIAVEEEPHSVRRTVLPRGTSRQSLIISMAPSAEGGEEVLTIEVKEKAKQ
Protocol: When dKLAK-z13 was added to culture medium of HEK293T cells transfected by expression vector for CNGB3-MYC, apoptosis was not induced, however. It was realized that this lack of effect could be due to the fact that receptor-bound dKLAK-z13 localizes to the luminal side of endosomes, a prediction supported by the endosome-like pattern of fluorescent z13. To release dKLAK-z13 from the endosomes to the cytoplasm, an endosome-escaping 18-mer peptide […] (SEQ ID NO:38; here abbreviated as HLAH) was devised by replacing lysines in KLAKLAK (SEQ ID NO:39) with histidines, to provide histidine-rich sequences capable of destabilizing endosome membranes at acidic pH (Midoux et al., 2002; Pichon et al., 2001). […] For this experiment, biotin-z13 was bound to CNGB3-MYC expressing HEK293T cells at 37° C. for 30 min with or without HLAH-z13. Cells were stained by Alexa 488-conjugated avidin followed by DAPI nuclear staining.

[2] = target: T1, CNGB3-MYC/His fusion protein; experiment: fluorescence microscopy of HeLa cells transfected with CNGB3-MYC; FITC-z13 in the culture medium
Protocol: When FITC-z13 was added to culture medium of CNGB3-MYC-expressing HeLa cells, FITC-z13 bound to sites marked by MYC-epitope expression. […] Antibody specificity was validated by immunostaining of CNGB3-Myc expressed in HeLa cells. This antibody strongly stained glandular epithelia of endometriosis in tissue sections.
CNGB3 cDNA was kindly provided by Dr. Hisao Ueyama, Department of Ophthalomology, Shiga University of Medical Science, Japan. cDNA encoding full-length CNGB3 was excised by HindIII and BsrGI and ligated into the HindIII and Asp718I sites of pcDNA3.1/myc-His-B vector (Invitrogen). HeLa cells were transfected with this vector, and expression of CNGB3-MYC/His fusion protein was determined by immunohistochemistry with an anti-MYC antibody and the anti-CNGB3 antibody (clone 3B2) described above. To test binding of z13 peptide to CNGB3, FITC-z13 was added (5 μg/ml) to the medium of HeLa cells transfected by the above-described vector and incubated at 37° C. for 15 min. Cells were washed with PBS, fixed with 4% PFA in PBS, and observed under a fluorescence microscope.

binding result [1]: binds
Binder: VRRADNRPG (also: biotinylated (position not given here), also called biotin-z13) [biotinylated z13]

binding result [2]: binds
B1: FITC-z13 (peptide)
peptide: {FITC}-VRRADNRPG
notes: Synthetic fluorescence-tagged z13 peptide; also called fluorescent FITC-z13; z13 peptide with an N-terminal FITC-tag
